Results from patent EP4039818A1.

Molecular target: a-sACE2 (enzymatically active soluble ACE2) as measured in Example 7b (UniProt Q9BYF1)
Test: cell-based or functional assay

“goat polyclonal anti-human ACE2 antibody (R&D Systems, #AF933)” was tested, and the enzymatic activity measurement performed according to the enzymatic activity assay of example 3a was > 5 µg/mL.
